Consider four molecules from article PMC6650407 (Scientific Reports, 2019).

Series [1] addresses T1, SyFumC (GST-SyFumC; Synechocystis 6803 fumarase C) (Synechocystis sp. PCC 6803, UniProt Q55674).
T1 construct: gene fumC
T1 sequence (Q55674 1-466): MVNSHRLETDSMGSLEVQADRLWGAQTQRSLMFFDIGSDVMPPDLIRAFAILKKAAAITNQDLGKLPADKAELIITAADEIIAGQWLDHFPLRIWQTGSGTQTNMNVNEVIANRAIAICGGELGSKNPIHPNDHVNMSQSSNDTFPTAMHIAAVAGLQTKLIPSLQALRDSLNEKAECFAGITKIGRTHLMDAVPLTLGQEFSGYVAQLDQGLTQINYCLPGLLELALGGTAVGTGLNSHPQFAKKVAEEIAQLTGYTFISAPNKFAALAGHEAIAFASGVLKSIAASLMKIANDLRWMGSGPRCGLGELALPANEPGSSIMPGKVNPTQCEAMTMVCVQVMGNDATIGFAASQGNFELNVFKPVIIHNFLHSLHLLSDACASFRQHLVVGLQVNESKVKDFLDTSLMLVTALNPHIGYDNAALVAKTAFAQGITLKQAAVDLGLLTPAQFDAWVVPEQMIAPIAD
Briefly: inhibition, absorbance at […] nm. The format is biochemical. The conditions noted are these: read-out: % of control activity at 4 mM.

Series [2] has as its target T2, SyFumC (GST-SyFumC; Synechocystis 6803 fumarase C) (Synechocystis sp. PCC 6803, UniProt Q55674, A314E).
T2 construct: gene fumC
Briefly: absorbance at […] nm, saturation curve. Type of series: biochemical. As to conditions: 100 mM Tris-HCl pH 7.5, 30 °C, no effector.

Series [3] addresses T1, SyFumC (GST-SyFumC; Synechocystis 6803 fumarase C). The series is described as follows: absorbance at […] nm, saturation curve. The conditions noted are these: 100 mM Tris-HCl pH 7.5, 30 °C, no effector. Type of series: biochemical.
Substrate in series [4]: O=C(O)C[C@H](O)C(=O)O
Briefly: purified protein. The conditions noted are these: 100 mM Tris-HCl pH 7.5, 30 °C, no effector.

A word on the Km: it is the concentration of substrate that gives half-maximal velocity. For orientation: kcat means the maximal rate divided by the concentration of active sites. The kcat/Km is the turnover number divided by the Michaelis constant.

With `O=C(O)CCC(=O)O` [succinate], the remaining activity at 4000 µM in series [1] fell in the range of 45 to 58%.

Consider `O=C(O)/C=C/C(=O)O` [fumarate], for which the Km in series [2] is 179 ± 36 µM; in series [3], 244 ± 26 µM.

B1: SyFumC (GST-SyFumC; Synechocystis 6803 fumarase C) (Synechocystis sp. PCC 6803 substr. Kazusa) (protein)
chain: MVNSHRLETDSMGSLEVQADRLWGAQTQRSLMFFDIGSDVMPPDLIRAFAILKKAAAITNQDLGKLPADKAELIITAADEIIAGQWLDHFPLRIWQTGSGTQTNMNVNEVIANRAIAICGGELGSKNPIHPNDHVNMSQSSNDTFPTAMHIAAVAGLQTKLIPSLQALRDSLNEKAECFAGITKIGRTHLMDAVPLTLGQEFSGYVAQLDQGLTQINYCLPGLLELALGGTAVGTGLNSHPQFAKKVAEEIAQLTGYTFISAPNKFAALAGHEAIAFASGVLKSIAASLMKIANDLRWMGSGPRCGLGELALPANEPGSSIMPGKVNPTQCEAMTMVCVQVMGNDATIGFAASQGNFELNVFKPVIIHNFLHSLHLLSDACASFRQHLVVGLQVNESKVKDFLDTSLMLVTALNPHIGYDNAALVAKTAFAQGITLKQAAVDLGLLTPAQFDAWVVPEQMIAPIAD
In the case of B1, in series [4], the Km was 478 ± 112 µM, the kcat stood at 42.3 s⁻¹ and the kcat/Km was determined as 90300 M⁻¹ s⁻¹.

B2: SyFumC (GST-SyFumC; Synechocystis 6803 fumarase C) (Synechocystis sp. PCC 6803 substr. Kazusa; A314E) (protein)
chain: MVNSHRLETDSMGSLEVQADRLWGAQTQRSLMFFDIGSDVMPPDLIRAFAILKKAAAITNQDLGKLPADKAELIITAADEIIAGQWLDHFPLRIWQTGSGTQTNMNVNEVIANRAIAICGGELGSKNPIHPNDHVNMSQSSNDTFPTAMHIAAVAGLQTKLIPSLQALRDSLNEKAECFAGITKIGRTHLMDAVPLTLGQEFSGYVAQLDQGLTQINYCLPGLLELALGGTAVGTGLNSHPQFAKKVAEEIAQLTGYTFISAPNKFAALAGHEAIAFASGVLKSIAASLMKIANDLRWMGSGPRCGLGELALPENEPGSSIMPGKVNPTQCEAMTMVCVQVMGNDATIGFAASQGNFELNVFKPVIIHNFLHSLHLLSDACASFRQHLVVGLQVNESKVKDFLDTSLMLVTALNPHIGYDNAALVAKTAFAQGITLKQAAVDLGLLTPAQFDAWVVPEQMIAPIAD
In the case of B2, in series [4], the Km is 442 ± 20 µM, the kcat was 21.6 s⁻¹ and the kcat/Km came out at 49000 M⁻¹ s⁻¹.
